Changes are numbered by the printed parent chain.

One experiment addresses T1, human MCM-CblA complex (Homo sapiens, UniProt Q8IVH4).
T1 sequence (Q8IVH4 66-418 limits assumed): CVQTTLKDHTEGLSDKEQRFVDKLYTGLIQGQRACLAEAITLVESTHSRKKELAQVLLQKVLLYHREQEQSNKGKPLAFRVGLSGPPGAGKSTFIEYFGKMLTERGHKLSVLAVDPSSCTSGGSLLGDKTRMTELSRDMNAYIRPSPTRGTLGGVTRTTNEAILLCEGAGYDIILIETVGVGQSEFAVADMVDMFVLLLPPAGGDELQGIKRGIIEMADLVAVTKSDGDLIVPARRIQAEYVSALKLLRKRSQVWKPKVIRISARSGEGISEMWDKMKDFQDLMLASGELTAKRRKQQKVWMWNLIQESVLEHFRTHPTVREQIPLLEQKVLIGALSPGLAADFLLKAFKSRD
T1 sequence (P22033 33-750 partner): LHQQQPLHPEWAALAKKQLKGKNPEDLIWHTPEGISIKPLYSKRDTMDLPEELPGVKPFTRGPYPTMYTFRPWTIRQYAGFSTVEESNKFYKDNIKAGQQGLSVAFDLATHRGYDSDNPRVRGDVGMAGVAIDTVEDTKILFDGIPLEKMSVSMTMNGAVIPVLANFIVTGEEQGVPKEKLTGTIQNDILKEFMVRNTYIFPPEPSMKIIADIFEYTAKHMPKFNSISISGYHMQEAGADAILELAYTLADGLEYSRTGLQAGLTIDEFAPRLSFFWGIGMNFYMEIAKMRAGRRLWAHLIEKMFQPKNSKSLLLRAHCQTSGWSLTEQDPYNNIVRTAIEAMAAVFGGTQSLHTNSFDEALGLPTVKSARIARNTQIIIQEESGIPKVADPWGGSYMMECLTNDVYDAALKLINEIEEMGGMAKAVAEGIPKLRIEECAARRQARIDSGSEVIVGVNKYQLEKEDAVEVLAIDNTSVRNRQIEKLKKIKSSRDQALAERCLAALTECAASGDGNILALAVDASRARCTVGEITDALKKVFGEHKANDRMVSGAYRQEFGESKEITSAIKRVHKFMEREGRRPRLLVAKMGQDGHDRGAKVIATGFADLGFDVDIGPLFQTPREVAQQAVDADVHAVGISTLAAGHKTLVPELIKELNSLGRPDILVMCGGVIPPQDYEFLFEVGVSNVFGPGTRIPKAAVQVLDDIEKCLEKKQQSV
Description: gel filtration and negative stain EM. In kind it is binding. The note with it: MCM 25 μM, CblA 50 μM, GMPPCP 500 μM. In general terms: SEC sorts molecules by how far they enter the pores of the column.

For experiment [1], the target named is T2, human CblA, wild type (human, UniProt Q8IVH4 72-418).
T2 sequence: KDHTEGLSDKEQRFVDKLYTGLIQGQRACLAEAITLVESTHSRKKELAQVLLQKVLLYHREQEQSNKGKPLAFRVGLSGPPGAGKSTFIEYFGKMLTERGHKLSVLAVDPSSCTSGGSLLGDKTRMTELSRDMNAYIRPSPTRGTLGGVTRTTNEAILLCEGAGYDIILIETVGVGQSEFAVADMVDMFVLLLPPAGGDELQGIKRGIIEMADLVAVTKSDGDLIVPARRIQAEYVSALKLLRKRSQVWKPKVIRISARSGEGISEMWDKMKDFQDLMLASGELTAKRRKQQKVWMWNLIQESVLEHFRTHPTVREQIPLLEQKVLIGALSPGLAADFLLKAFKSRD
Description: cell-based or functional assay.

In a further experiment the target is T3, human CblA Q273A (human, UniProt Q8IVH4 72-418, Q273A).
T3 sequence: T2 sequence with Q202A
Description: cell-based or functional assay.

For a further experiment, the target named is T4, human CblA K276A (human, UniProt Q8IVH4 72-418, K276A).
T4 sequence: T2 sequence with K205A
Description: cell-based or functional assay.

The next experiment concerns the target T5, human CblA K276E (human, UniProt Q8IVH4 72-418, K276E).
T5 sequence: T2 sequence with K205E
Description: cell-based or functional assay.

The target in the next experiment is T6, human CblA G278D (human, UniProt Q8IVH4 72-418, G278D).
T6 sequence: T2 sequence with G207D
Description: cell-based or functional assay.

The target of the next experiment is T7, human CblA G274S (human, UniProt Q8IVH4 72-418, G274S).
T7 sequence: T2 sequence with G203S
Description: cell-based or functional assay.

For experiment [2], the target named is T2, human CblA, wild type. Description: SEC-MALS.

For the molecule `Nc1nc2c(ncn2[C@@H]2O[C@H](COP(=O)(O)OP(=O)(O)CP(=O)(O)O)[C@@H](O)[C@H]2O)c(=O)[nH]1` [GMPPCP], on human MCM-CblA complex, the “gel filtration and negative stain EM; block of AdoCbl transfer” value is reported as “higher order oligomeric peak seen in the presence of GMPPCP”.

B1: human methylmalonyl-CoA mutase (enzyme, UniProt P22033 33-750, looked up)
chain: T1 sequence (P22033 33-750 partner)
For the molecule B1, the “GTPase activity of CblA in the presence of MCM (GAP activation)” value in the experiment with human CblA, wild type [1] came out at 2.78 min⁻¹; with human CblA Q273A it was 0.86 min⁻¹; in the experiment with human CblA K276A it was 2.98 min⁻¹; with human CblA K276E it was 0.92 min⁻¹; with human CblA G278D it was 3.07 min⁻¹; with human CblA G274S it was 1.04 min⁻¹. For the same molecule, the “stoichiometry N” value with human CblA, wild type [2] was 2 MCM (dimer) per CblA (dimer).

What is called stoichiometry N is the number of molecules, sites or subunits per partner or assembly.
